Measured values taken from patent US20250027068A1.

B1: VRT-26 (Fc fusion)
chain: VTSVWTKGVTPPTNFTYGEDVLHAPYVANQGWYDITKTFNGKDNLLCGAATAGNMLHWWFDQNKEQIENYLKKHPEKQKINFNGEQLFDVKEAIDTKDSQLDSKLFEYFKEKAFPYLSTKHLGVFPDHVIDMFINGYRLSLTNHGPTPVKRGSKDKRGGIFDAVFTRGVQSKLLTNRHDFKEKTLKEISDLIKQELTEGKALGISHTYANVRINHVINLWGADFDAEGNLEAIYVTDSDTNASIGMKKYFVGVNSNGKVAISAKEIEEDNIGAQVLGLFTLSTGQDIWNQTNDKTHTCPPCPAPEAAGAPSVFLFPPKPKDTLMISRTPEVTCVVVDVSHEDPEVKFNWYVDGVEVHNAKTKPREEQQNSTYRVVSVLTVLHQDWLNGKEYKCKVSNKALKAPIEKTISKAKGQPREPQVYTLPPSRDELTKNQVSLTCLVKGFYPSDIAVEWESNGQPENNYKTTPPVLDSDGSFFLYSKLTVDKSRWQQGNVFSCSVMHEALHNHYTQKSLSLSPG
B2: VRT-27 (Fc fusion)
chain: VTSVWTKGVTPPADFTQGEDVFHAPYVANQGWYDITKTFNGKDNLLCGAATAGNMLHWWFDQNKEYIEAYLKKHPEKQKIIFGDQELLDVRKAINTKGSQKNSELFNYFRDKAFPNLSARRLGVFPDLVLDMFINGYYLNVTKTQTTDVNRTYQEKDKRGGIFDAVFTRGVQSKLLTSRHDFKEKGLKEISDLIKQELTEGKALGLSHTYANVRINHVINLWGADFDSDGNLKAIYVTDSDTNASIGMKKYFVGVNSAGKVAISAKEIKEDNIGAQVLGLFTLSTGQDIWNQTNDKTHTCPPCPAPEAAGAPSVFLFPPKPKDTLMISRTPEVTCVVVDVSHEDPEVKFNWYVDGVEVHNAKTKPREEQQNSTYRVVSVLTVLHQDWLNGKEYKCKVSNKALKAPIEKTISKAKGQPREPQVYTLPPSRDELTKNQVSLTCLVKGFYPSDIAVEWESNGQPENNYKTTPPVLDSDGSFFLYSKLTVDKSRWQQGNVFSCSVMHEALHNHYTQKSLSLSPG
B3: VRT-30 (Fc fusion)
chain: QITSVWTKGVTPPTPEQFRYNNEDVIHAPYLANQGWYDITKTFNGKDNLLCGAATAGNMLHWWFDQNKTEIEAYLSKHPEKQKIIFNNQELFDLKAAIDTKDSQTNSQLFNYFRDKAFPGLSARQLGVFPDLVLDMFINGYYLNVFKTQSTDVNRPYQDKDKRGGIFDAVFTRGVQTTLLTARHDLKNKTLNDISTLIKQELTEGKALALSHTYANVRISHVINLWGADFNAEGNLEAIYVTDSDANASIGMKKYFVGVNAHGKVAISAKKIEGENIGAQVLGLFTLSSGKDIWQKLSDKTHTCPPCPAPEAAGAPSVFLFPPKPKDTLMISRTPEVTCVVVDVSHEDPEVKFNWYVDGVEVHNAKTKPREEQQNSTYRVVSVLTVLHQDWLNGKEYKCKVSNKALKAPIEKTISKAKGQPREPQVYTLPPSRDELTKNQVSLTCLVKGFYPSDIAVEWESNGQPENNYKTTPPVLDSDGSFFLYSKLTVDKSRWQQGNVFSCSVMHEALHNHYTQKSLSLSPG
B4: VRT-32 (Fc fusion)
chain: QITSVWTKGVTPPTPEQFRYNNEDVFHAPYTAHQGWYDITKTFDGKDNLLCGAATAGNMLHWWFDQNKTEIEAYLSKHPEKQKIIFNNQELFDLKAAIDTKDSQTNSALFNYFRDKAFPGLSARQLGVFPDLVLDMFINGYYLNVFKTQSTDVNRPYQDKDKRGGIFDAVFTRGVQTTLLTARHDLKNKTLNDISTIIKQELTEGRALALSHTYANVRISHVINLWGADFNAEGNLEAIYVTDSDSNASIGMKKYFVGVNASGKVAISAKKIEGENIGAQVLGLFTLSSGKDIWQKLSDKTHTCPPCPAPEAAGAPSVFLFPPKPKDTLMISRTPEVTCVVVDVSHEDPEVKFNWYVDGVEVHNAKTKPREEQQNSTYRVVSVLTVLHQDWLNGKEYKCKVSNKALKAPIEKTISKAKGQPREPQVYTLPPSRDELTKNQVSLTCLVKGFYPSDIAVEWESNGQPENNYKTTPPVLDSDGSFFLYSKLTVDKSRWQQGNVFSCSVMHEALHNHYTQKSLSLSPG
B5: VRT-31 (Fc fusion)
chain: QITSVWTKGVTPLTPEQFRYNNEDVIHAPYLANQGWYDITKTFNGKDNLLCGAATAGNMLHWWFDQNKTEIEAYLKKHPEKQKIIFNNQELFDLKAAIDTKDSQTNSQLFNYFRDKAFPGLSARQLGVFPDLVLDMFINGYYLNVFKTQSTDVNRPYQDKDKRGGIFDAVFTRGVQTTLLTARHDLKNKGLNEISTLIKQELTEGKALALSHTYANVRISHVINLWGADFNAEGNLEAIYVTDSDSNASIGMKKYFVGVNAHGKVAISAKKIEGENIGAQVLGLFTLSSGKDIWQKLSDKTHTCPPCPAPEAAGAPSVFLFPPKPKDTLMISRTPEVTCVVVDVSHEDPEVKFNWYVDGVEVHNAKTKPREEQQNSTYRVVSVLTVLHQDWLNGKEYKCKVSNKALKAPIEKTISKAKGQPREPQVYTLPPSRDELTKNQVSLTCLVKGFYPSDIAVEWESNGQPENNYKTTPPVLDSDGSFFLYSKLTVDKSRWQQGNVFSCSVMHEALHNHYTQKSLSLSPG
B6: VRT-23 (Fc fusion)
chain: SQTEDSESLQRLRDIEDFQAEKKMQNVVYTKWLDGVDVKDHDFRKIVDGNIAYYATPLLNGRGFYDINKDFNRDNDKCAAAVAANMFHYWLDINRDNVDRFLRQNPEKHGIIELPDEQLKLSDFLNTYESDHGYRDKSKLFDFISNNFNKPVWTDKLLDNYINGYAYNYKYGRTIEDSTKNTSKINFFKEVFNEKILTNIHSIRNQNEFSVLLSEALYTGKAIGLSYGPAGLRHSLGHIISVWGADLDADGNVVAIYVTDSDDKKLTIGDERVGLKRYKISTDDENRLRLTAYEETHNTGGQIRGLWTLDTGKYAWADYFDKTEQTGTDQAEQDKTHTCPPCPAPEAAGAPSVFLFPPKPKDTLMISRTPEVTCVVVDVSHEDPEVKFNWYVDGVEVHNAKTKPREEQQNSTYRVVSVLTVLHQDWLNGKEYKCKVSNKALKAPIEKTISKAKGQPREPQVYTLPPSRDELTKNQVSLTCLVKGFYPSDIAVEWESNGQPENNYKTTPPVLDSDGSFFLYSKLTVDKSRWQQGNVFSCSVMHEALHNHYTQKSLSLSPG
B7: VRT-24 (Fc fusion)
chain: VTSVWTKGVTPPANFTQGEDVFHAPYKANQGWYDITKTFNGKDNLLCGAATAGNMLHWWFDQNKDQIEAYLKEHPEKQKINFNGEQLFDVKEAIDTKDDQTNSKLFEYFKEKAFPYLSTKHLGVFPDHVLDMFINGYRLSLTNHGPTPVKEGSKDKRGGIFDAVFTRGVQSKLLTSRHDFKEKTLKEISDLIKQELTEGKALALSHTYANVRINHVINLWGADFDSNGNLEAIYVTDSDTNASIGMKKYFVGVNSAGKVAISAKEIEDDNIGAQVLGLFTLSTGQDIWNQTNDKTHTCPPCPAPEAAGAPSVFLFPPKPKDTLMISRTPEVTCVVVDVSHEDPEVKFNWYVDGVEVHNAKTKPREEQQNSTYRVVSVLTVLHQDWLNGKEYKCKVSNKALKAPIEKTISKAKGQPREPQVYTLPPSRDELTKNQVSLTCLVKGFYPSDIAVEWESNGQPENNYKTTPPVLDSDGSFFLYSKLTVDKSRWQQGNVFSCSVMHEALHNHYTQKSLSLSPG
B8: VRT-25 (Fc fusion)
chain: VTSVWTKGVTPPANFTQGEDVFHAPYVANQGWYDITKTFNGKDNLLCGAATAGNMLHWWFDQNKDQIERYLKEHPEKQKINFNGEQLFDVKEAIDTKDSQTDSKLFEYFKEKAFPYLSTKHLGVFPDHVLDMFINGYRLSLTNHGPTPVKEGSKDKRGGIFDAVFTRGVQSKLLTSRHDFKEKTLKEISDLIKQELTEGKALGLSHTYANVRINHVINLWGADFDSEGNLKAIYVTDSDTNASIGMKKYFVGVNSAGKVAISAKEIKEDNIGAQVLGLFTLSTGQDIWNQTNDKTHTCPPCPAPEAAGAPSVFLFPPKPKDTLMISRTPEVTCVVVDVSHEDPEVKFNWYVDGVEVHNAKTKPREEQQNSTYRVVSVLTVLHQDWLNGKEYKCKVSNKALKAPIEKTISKAKGQPREPQVYTLPPSRDELTKNQVSLTCLVKGFYPSDIAVEWESNGQPENNYKTTPPVLDSDGSFFLYSKLTVDKSRWQQGNVFSCSVMHEALHNHYTQKSLSLSPG
B9: VRT-22 (Fc fusion)
chain: QITSVWTKGVTPLTPEQFRYYNEDVIHAPYLAHQGWYDITKAFDGKDNLLCGAATAGNMLHWWFDQNKTEIEAYLSKHPEKQKIIFKNQELFDLKAAIDTKDSQTNSQLFNYFRDKAFPGLSARQLGVFPDLVLDMFINGYYLNVFKTQSTDVNRPYQDKDKRGGIFDAVFTRGVQTTLLTARHDLKNKGLNDISTIIKQELTEGRALALSHTYANVRISHVINLWGADFNAEGNLEAIYVTDSDTRASIGMKKYFVGINAHGHVAISAKKIEGENIGAQVLGLFTLSSGKDIWQKLSDKTHTCPPCPAPEAAGAPSVFLFPPKPKDTLMISRTPEVTCVVVDVSHEDPEVKFNWYVDGVEVHNAKTKPREEQQNSTYRVVSVLTVLHQDWLNGKEYKCKVSNKALKAPIEKTISKAKGQPREPQVYTLPPSRDELTKNQVSLTCLVKGFYPSDIAVEWESNGQPENNYKTTPPVLDSDGSFFLYSKLTVDKSRWQQGNVFSCSVMHEALHNHYTQKSLSLSPG
B10: VRT-28 (Fc fusion)
chain: ITSVWTKGVTPPAKFTQGEDVFHAPYVANQGWYDITKTFNGKDNLLCGAATAGNMLHWWFDQNKEEIEAYLKKHPEKQKIIFGDQELLDVRKVINTKDSQTNSALFNYFKDKAFPNLSARRLGVFPDLVLDMFINGYYLNVYKTQTTDVNRTYQTKDRRGGIFDAVFTRGVQSKLLTERHDFKEKTLKEISDLIKQELTEGKALGLSHTYANVRINHVINLWGADFDSNGNLEAIYVTDSDTNASIGMKKYFVGVNSAGKVAISAKEIKEDNIGAQVLGLFTLSTGQDIWNQTNDKTHTCPPCPAPEAAGAPSVFLFPPKPKDTLMISRTPEVTCVVVDVSHEDPEVKFNWYVDGVEVHNAKTKPREEQQNSTYRVVSVLTVLHQDWLNGKEYKCKVSNKALKAPIEKTISKAKGQPREPQVYTLPPSRDELTKNQVSLTCLVKGFYPSDIAVEWESNGQPENNYKTTPPVLDSDGSFFLYSKLTVDKSRWQQGNVFSCSVMHEALHNHYTQKSLSLSPG

These binders were tested against pooled human IgG (human) (assay: cell-based or functional assay).
Work on B1 yielded an Enzyme Activity Endpoint Assay: Fab′2 of 0 ng/µL, an Enzyme Activity Endpoint Assay: Fc of 213 ng/µL and an Enzyme Activity Endpoint Assay: IgG of 303 ng/µL. For the same binder, the Enzyme Activity Endpoint Assay: scIgG was 342 ng/µL.
Work on B2 yielded an Enzyme Activity Endpoint Assay: Fab′2 of 0 ng/µL, an Enzyme Activity Endpoint Assay: Fc of 92 ng/µL and an Enzyme Activity Endpoint Assay: IgG of 1150 ng/µL. It also gave an Enzyme Activity Endpoint Assay: scIgG of 33 ng/µL.
Work on B3 yielded an Enzyme Activity Endpoint Assay: Fab′2 of 0 ng/µL, an Enzyme Activity Endpoint Assay: Fc of 46 ng/µL and an Enzyme Activity Endpoint Assay: IgG of 986 ng/µL. It also gave an Enzyme Activity Endpoint Assay: scIgG of 22 ng/µL.
In the case of B4, the Enzyme Activity Endpoint Assay: Fab′2 is reported as 0 ng/µL, the Enzyme Activity Endpoint Assay: Fc is reported as 96 ng/µL and the Enzyme Activity Endpoint Assay: IgG is reported as 803 ng/µL. For the same binder, the Enzyme Activity Endpoint Assay: scIgG was 79 ng/µL.
In the case of B5, the Enzyme Activity Endpoint Assay: Fab′2 is reported as 0 ng/µL, the Enzyme Activity Endpoint Assay: Fc is reported as 27 ng/µL and the Enzyme Activity Endpoint Assay: IgG is reported as 1020 ng/µL. For the same binder, the Enzyme Activity Endpoint Assay: scIgG was 21 ng/µL.
In the case of B6, the Enzyme Activity Endpoint Assay: Fab′2 is reported as 0 ng/µL, the Enzyme Activity Endpoint Assay: Fc is reported as 29 ng/µL and the Enzyme Activity Endpoint Assay: IgG is reported as 1010 ng/µL. The Enzyme Activity Endpoint Assay: scIgG was 20 ng/µL.
In the case of B7, the Enzyme Activity Endpoint Assay: Fab′2 is reported as 0 ng/µL, the Enzyme Activity Endpoint Assay: Fc is reported as 187 ng/µL and the Enzyme Activity Endpoint Assay: IgG is reported as 392 ng/µL. The Enzyme Activity Endpoint Assay: scIgG was 249 ng/µL.
For B8, the Enzyme Activity Endpoint Assay: Fab′2 was 12 ng/µL, the Enzyme Activity Endpoint Assay: Fc was 204 ng/µL and the Enzyme Activity Endpoint Assay: IgG was 183 ng/µL. It also gave an Enzyme Activity Endpoint Assay: scIgG of 284 ng/µL.
B9 was tested, and the Enzyme Activity Endpoint Assay: Fab′2 was 0 ng/µL, the Enzyme Activity Endpoint Assay: Fc was 31 ng/µL and the Enzyme Activity Endpoint Assay: IgG was 1010 ng/µL. It also gave an Enzyme Activity Endpoint Assay: scIgG of 21 ng/µL.
B10 gave an Enzyme Activity Endpoint Assay: Fab′2 of 0 ng/µL, an Enzyme Activity Endpoint Assay: Fc of 3 ng/µL and an Enzyme Activity Endpoint Assay: IgG of 987 ng/µL. For the same binder, the Enzyme Activity Endpoint Assay: scIgG was 22 ng/µL.
